Laboratory results as given in publication PMC11606422, “MdWRKY31‐MdNAC7 regulatory network: orchestrating fruit softening by modulating cell wall‐modifying enzyme MdXTH2 in response to ethylene signalling”.

Molecular target: T1, MdNAC7 (Malus domestica, UniProt D9ZJA6 1-263)
T1 sequence: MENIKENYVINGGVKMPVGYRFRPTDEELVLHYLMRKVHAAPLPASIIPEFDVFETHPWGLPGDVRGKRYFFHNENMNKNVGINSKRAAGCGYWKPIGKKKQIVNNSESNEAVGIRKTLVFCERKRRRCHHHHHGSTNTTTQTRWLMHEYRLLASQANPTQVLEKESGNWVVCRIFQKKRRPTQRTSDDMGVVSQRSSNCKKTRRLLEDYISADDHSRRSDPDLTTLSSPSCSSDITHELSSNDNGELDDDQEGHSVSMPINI
Test: EMSA; LightShift Chemiluminescent EMSA kit, 10 uL, room temperature 30 min, 6% polyacrylamide gel in 0.5x TBE; salt and pH not stated
Settings: protein: recombinant; chain copies: 2; label: biotin

B1: MdXTH2 promoter probe for MdNAC7 (dsDNA)
DNA 1: GTAGTACACCATGTGTTATTAT
DNA 2: ATAATAACACATGGTGTACTAC
binding result: no binding
